In the supplement of paper PMC10567573:
± gives the standard deviation.

Assay: protein stability index of a GFP-peptide fusion (GPS, HEK-293T) (PSI 1-6); higher = more stable
Conditions: c terminus: a fixed tail appended
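Further: 24-mer peptide tiles fused after GFP, lentivirally expressed, FACS-sorted into six equal bins by GFP/DsRed ratio, decoded by Illumina sequencing, PSI is the read-weighted mean bin number.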

Sequence | protein stability index (treatment: DMSO) | protein stability index (treatment: MLN4924 1 uM, 8 h)
KEKTAKHFFALKVMSIPDVIRLKQ [PRKX] | 2.44 ± 0.23 | 2.22 ± 0.2
KEKWWDGQRDRKAEHWKHKKEESG [PBXIP1] | 4.54 ± 0.21 | 4.66 ± 0.52
KERPLVIGHFNTASGVGFILGPVV [MFSD9] | 3.04 ± 1.1 | 2.77 ± 0.51
KESAQCVGDEFLNCKLATRAKDFL [SNX8] | 3.32 ± 0.2 | 3.21 ± 0.36
KFAGSFYFAITVITTIGYGHAAPG [KCNK9] | 3.42 ± 0.31 | 3.27 ± 0.17
KGGEERKAEGGEEDSLGCLTADTK [IRX6] | 5.44 ± 0.25 | 5.52 ± 0.16
KGTFKDYVRDRADLNKDKPVIPAA [ETS1] | 4.35 ± 0.13 | 4.43 ± 0.16
KGTILKASVDYIRKLQKEQQRSKD [TFE3] | 3.41 ± 0.19 | 3.79 ± 0.38
KILISGLEPSTPYRFLLYGLHEGK [TNXB] | 2.75 ± 0.77 | 3.54 ± 2.4
KIMADIRAQYDELARKNREELDKY [KRT18] | 3.07 ± 0.15 | 3.19 ± 0.35
KINLQGDIVDRGSTNLGVNQAGFT [ADD1] | 3.74 ± 0.25 | 3.83 ± 0.19
KKFRTKSRTWAGEKSKREMYSRLK [CDC25A] | 3.05 ± 0.39 | 3.46 ± 0.28
KKKCLEWLLNNLMTHQNVELFKEL [GMCL1] | 2.54 ± 0.17 | 2.83 ± 0.78
KKKKIGFYFEVCGMMVESVNAKTL [PCDHGA10] | 2.28 ± 0.68 | 2.18 ± 0.38
KKLHKIQNKAQRQKDLIMKVENLT [TAF7L] | 3.23 ± 0.17 | 3.37 ± 0.12
KKVLKKMLKFLAKGEVPKGSCEDE [ATE1] | 2.11 ± 0.25 | 2.25 ± 0.47
KLAIIPGGGGTQRLPRAIGMSLAK [AUH] | 2.79 ± 0.05 | 2.88 ± 0.52
KLKDLSTVTSLQVPVLKPMDLMVE [PPP2R2C] | 3.33 ± 0.31 | 3.43 ± 0.27
KLQQLPADFGRLVNLQHLDLLNNK [LRRC59] | 2.97 ± 0.27 | 3.01 ± 0.33
KLQREMERREALCRQLSESESSLE [CCDC6] | 4.68 ± 0.18 | 4.85 ± 0.16
KMKQLTEETEVLAHEIERLQMEMK [TRIM35] | 4.06 ± 0.55 | 3.63 ± 0.28
KNERLWLLDDSKTWWRVRNAANRT [NCK2] | 2.31 ± 0.23 | 2.62 ± 0.37
KNIFGTPEFVAPEIVNYEPLGLEA [DAPK3] | 3.95 ± 0.23 | 4.26 ± 0.51

Sequence | protein stability index (treatment: DMSO) | protein stability index (treatment: MLN4924 1 uM, 8 h)
KPDGSRHQDVPSQDDSKPTQRQFT [AASDHPPT] | 5.44 ± 0.14 | 5.353 ± 0.026
KPHRLGDSEHEPVYRAELVGELNG [PWWP2B] | 5.01 ± 0.13 | 4.5 ± 0.4
KQAEICQLEEKLEIANEDRKHALE [CCDC89] | 5.52 ± 0.28 | 5.49 ± 0.077
KQYAMQRPNDDSLAFLDKIKSVKE [IQUB] | 3.64 ± 0.35 | 3.87 ± 0.3
KRRANQKSSAQGPIPWFLPESRSL [PPEF2] | 3.49 ± 0.23 | 3.57 ± 0.16
KRRGPQRSVDVVVSSVFLLTLSIA [PHTF1] | 2.55 ± 0.32 | 2.33 ± 0.23
KSKLTYMCRVDLRGHMPEWYTKSF [DLC1] | 2.68 ± 0.65 | 2.43 ± 0.29
KTTGLEEAAEAETAKDNGEAEDQE [SRPK2] | 5.69 ± 0.14 | 5.73 ± 0.24
KVEQAKKPSFQSGGRRRPPASSRN [RBMY1A1] | 4.628 ± 0.025 | 4.73 ± 0.084
KVKKLKNLKTLDSKPGVYTSYKPY [DENND6A] | 2.66 ± 0.28 | 2.81 ± 0.42
KVLGHVNNILISAVLPTAFRVAKK [GDAP1] | 2.83 ± 0.59 | 2.44 ± 1.3
KVLQLTVRCEALTGELETLKERCA [CCDC89] | 2.28 ± 0.21 | 2.45 ± 0.27
KVTRLKSLALDIDRDAEDQNRYLD [BET1L] | 4.44 ± 0.17 | 4.6 ± 0.18
KVWDQVKASNPDLKLWEIGKIIGG [SMARCE1] | 2.45 ± 0.32 | 2.36 ± 0.23
KYKCLLQQLYYTEADYEDDSKIAF [IQUB] | 2.12 ± 0.6 | 2.02 ± 0.32
KYKKAVGLKLKQEKKEAYLKLKQG [WDR88] | 2.98 ± 0.87 | 3.58 ± 0.27
LAATQAEKAVANFDRTEWVQIRRL [ZC2HC1C] | 3.45 ± 0.11 | 3.16 ± 0.37
LAAVLVEPKLHTPMYFFLGNLSVL [OR3A1] | 3.56 ± 0.33 | 3.57 ± 0.57
LADPYRSLKAPGARGPGPEGGGGG [JUNB] | 4.63 ± 0.53 | 4.71 ± 0.47
LADSDTLSSAEENEPSQAETAVEG [C18orf25] | 5.55 ± 0.33 | 5.54 ± 0.16
LAEIRSDLERQNQEYQVLLDVRAR [KRT33B] | 3.84 ± 0.25 | 4.02 ± 0.32
LAKQPGVSVNAQTLDGRTPLHLAA [RIPK4] | 3.99 ± 0.76 | 4.02 ± 0.087
LAMLNAVTEDLRLKDWEHSIALRN [SCARA5] | 2.86 ± 0.17 | 2.93 ± 0.16

Sequence | protein stability index (treatment: DMSO) | protein stability index (treatment: MLN4924 1 uM, 8 h)
LANHTGYIKVDWQRVEKDMKKAKE [FUNDC2] | 4.11 ± 0.21 | 4.08 ± 0.19
LCKDCQVIDGRNVTVTDVDIVFSK [TPPP] | 2.89 ± 0.28 | 3.3 ± 0.47
LCLACSAGYYELAQVLLAMHANVE [ANKRD17] | 2.96 ± 0.48 | 2.56 ± 0.25
LDEQNKRPCRKFLLTGQCDFGSNC [ZMAT5] | 3.34 ± 0.42 | 3.323 ± 0.006
LDLIFHVALPTEAEFQLVRDVVLC [TENT5C] | 2.98 ± 0.27 | 2.68 ± 0.73
LDLLSELYQKQPKIGYHLLYYLRA [INTS3] | 3.21 ± 0.65 | 2.74 ± 0.53
LDMSQNVSLVTAELSKDAQASAAP [SLC29A1] | 5.16 ± 0.12 | 5.08 ± 0.095
LDTVEEVLSVSKILHIPQVTKLCV [KLHL14] | 2.35 ± 0.48 | 2.79 ± 0.43
LEAVLHCHQMGVVHRDLKPENLLL [CAMK2B] | 2.22 ± 0.3 | 2.15 ± 0.35
LECEINTYRSLLESEDCKLPSNPC [KRT33B] | 4.07 ± 0.11 | 4.25 ± 0.23
LEEAKKMEMAKFRYILPVYGICRE [RIPK4] | 2.26 ± 0.23 | 2.33 ± 0.31
LEEEFDSDSGLSLDSSHSPSSLSS [NFE2L1] | 5.251 ± 0.052 | 5.22 ± 0.12
LEEGENPVPAFQSDGTDEPESKEP [SMG5] | 5.65 ± 0.24 | 5.65 ± 0.2
LEEKCQQPASELLQDVRVNQSRCE [TRIM15] | 5.58 ± 0.22 | 5.53 ± 0.5
LEGVIDRYQQSKAAALKCQLCEKA [TRIM9] | 3.45 ± 0.32 | 3.78 ± 0.34
LEGVVSQIDAVGSKLKMLERKGWL [PKD2L1] | 2.63 ± 0.37 | 2.77 ± 0.24
LELLGASFANDRENYDIIKTYHYL [FEM1B] | 2.32 ± 0.43 | 2.17 ± 0.36
LEQASSHIGNSTQATVRDAVVGRP [ATL3] | 5.03 ± 0.26 | 5.03 ± 0.35
LEQKTQESQKKKQQDDSDEYDDDD [ZNF207] | 5.62 ± 0.12 | 5.61 ± 0.34
LFEGMIWFLVPISSVICNDITAYL [CDS1] | 3.91 ± 0.42 | 3.38 ± 0.86
LFSLNVISLTCVSVAFAVAWFLPM [SLC19A2] | 3.12 ± 0.48 | 2.8 ± 0.23
LGERRAEPHSLLHLSRLCVRHNLG [SPSB2] | 3.35 ± 0.22 | 3.3 ± 0.23
LGLPYYETSVFDQFGIKDVFDNAI [RHOBTB1] | 2.34 ± 0.28 | 2.45 ± 0.42

Sequence | protein stability index (treatment: DMSO) | protein stability index (treatment: MLN4924 1 uM, 8 h)
LGLTNQSRRYNRKEPAEFNGDGAF [ZNF649] | 3.96 ± 0.29 | 4.26 ± 0.37
LGPAFRGLKGRTLYPAVSAVWGQC [SPSB2] | 2.17 ± 0.22 | 2.16 ± 0.18
LGSFESPANSETSDLTLYLVVAVA [PCDHGA10] | 2.66 ± 0.87 | 2.67 ± 0.48
LGVCASGLLIYRDRLRINRFAWPK [EPB41L3] | 2.06 ± 0.046 | 2.4 ± 0.26
LHNLLLHQEGAKMAVRLAGGLQKM [CTNNB1] | 2.02 ± 0.22 | 2.36 ± 0.26
LHVAAHYGRDSFVRLLLEFKAEVD [ASB7] | 2.15 ± 0.14 | 2.15 ± 0.37
LIFSVQPKSLVRLSLEAVICFKEM [KLHDC2] | 1.88 ± 0.17 | 2.04 ± 0.31
LIGRPGNKTQQVIHIIDFGLAKEY [CSNK1G3] | 2.38 ± 0.69 | 2.4 ± 0.43
LKCDLQERLLCPSLLAGTADGSLR [M1AP] | 2.55 ± 0.32 | 2.5 ± 0.24
LKDLLLQVGRGLRYIHSMSLVHMD [WEE1] | 2.64 ± 0.74 | 2.85 ± 0.69
LKPTLTIIKTEKVDLELFPSPDME [ETS1] | 3.4 ± 0.18 | 3.21 ± 0.32
LKQNFSKSWHDMQTTTAYKKTHET [TPD52L1] | 3.6 ± 0.25 | 3.96 ± 0.24
LKSQPLPLRSSLPISLQATPATPA [TFE3] | 3.92 ± 0.14 | 4 ± 0.26
LKVAAESCKADVVELLLSHADCDR [FEM1B] | 3.16 ± 0.19 | 3.13 ± 0.36
LKYQAPDIDVQLSSELTDSLRTLK [NOP53] | 2.79 ± 0.14 | 3.14 ± 0.45
LLAQARDEAQGACLQQKQVVAEAQ [LRRC45] | 4.847 ± 0.003 | 4.9 ± 0.087
LLDDSKTWWRVRNAANRTGYVPSN [NCK2] | 2.93 ± 0.23 | 2.79 ± 0.15
LLGTSGLKRRFSRLENRYEALAKQ [DAPK3] | 3.04 ± 0.31 | 3.06 ± 0.27
LLHSQARLAELEAQVRKLELERAQ [FBF1] | 3.68 ± 0.15 | 3.5 ± 0.58
LLKQGYNKTLLRLRLRKERVSDVQ [PKD2L1] | 2.35 ± 0.28 | 2.44 ± 0.27
